Entries after “also recorded” stand apart in the source; their conditions may differ.
Tests used:
[1] = Example 2: occurrence and/or severity of ulcers; type: in vivo; details: end point: slit lamp microscopy for surface (ir)regularity
Description: (§1) Compositions can also be administered in effective amounts to promote re-epithelialization, reduce the occurrence and/or severity of ulcers and preserve nerve function (appropriate signal potentiation) and/or integrity (physical state of the nerve itself). Objective measures for re-epithelialization include, without limitation, slit lamp microscopy with fluorescence staining. Objective measures for reduction and/or severity of ulcers include, without limitation, slit lamp microscopy for surface (ir)regularity. Objective measures for preservation of nerve function include corneal sensitivity measures. Objective measures for preservation of nerve integrity include in vitro confocal microscopy to determine the nerve fiber health (length, diameters and branches.)
(§2) A number of experiments are conducted to further define the role of up-regulation of TGFβ1, TGFβ2, TGFβ3, Serpine 1, fibronectin, lumican, epidermal growth factor ligands, activin and Nodal as well as the down-regulation of sEH/Ephx2 in the promotion of wound healing, promotion of re-epithelialization, reduction of the occurrence and/or severity of ulcers, preservation of nerve function and/or integrity, promotion of eye health and maintenance of vision. In the experiments, each experiment having relevant control conditions, each of the listed compounds is administered as part of a therapeutic composition (including as a direct therapeutic and/or as part of a genetic therapy as described herein).

[2] = Example 2: promotion of re-epithelialization; type: in vivo; details: end point: establishment of a biological barrier or Superficial Punctate Keratitis
Description: as §1, §2

STZ B6 mouse corneas = assay: Epithelial wound closure in STZ B6 mouse corneas after subconjunctival recombinant TGFβ3; type: in vivo; details: STZ B6 mice, 14 ng subconjunctival 4 hours prior to wounding, 2 mm wound, 16 and 24 hpw, vs PBS
Protocol: (§3) FIGS. 7A-7C. Effects of TGFβ3 on epithelial wound closure in B6 and STZ B6 mouse corneas. […] A 2 mm epithelial wound was made and allowed to heal for 16 h in B6 mice and 24 h in STZ B6 mice, and then fluorescence stained, and photographed. 1) NL cornea injected with PBS, 2) NL corneal injected with TGFβ3, 3) DM (STZ) cornea injected with PBS, 4) DM corneal injected with TGFβ3. (FIG. 7B) Changes in the mean of the remaining wound areas in pixels were calculated by Adobe Photoshop software with p value listed, n=5. (FIG. 7C). CECs collected during wounding (first 2 lanes) and 16 hpw (1, 2) or 24 hpw (3, 4) in PBS (1, 3) and TGFβ3 (2, 4) treated corneas were extracted and subjected to realtime-PCR analysis for Serpine 1 expression, N=3, **p<0.01.
Corneal Epithelial Debridement Wound. Anesthetized rats and mice were first demarcated with a trephine in the central cornea (5-mm circular wound for rats and 2 mm for mice) and CECs were removed with a blunt scalpel blade under a dissecting microscope (4; 6; 7). The blade with scraped CECs was immediately immersed into liquid nitrogen and the visible ice was collected into a test tube, placed on dry ice and stored at −80° C. The sample was marked as unwounded (UW). Bacitracin ophthalmic ointment was applied to the cornea after surgery to prevent infection. […]

[3] = tested on: Smad2/3, TGFβ1, TGFβ2, TGFβ3 in WH CECs; assay: Western blotting of CECs of TGFβ3 treated GK rat corneas; type: in vivo; details: GK rats
Protocol: (§4) FIGS. 6A-6C. Effects of TGFβ3 on epithelial wound closure in GK rat corneas. (FIG. 6A) A total of 40 ng recombinant TGFβ3, with PBS as the control, was injected into subconjunctival space at two sites (10 μl each) of GK rats 4 hours prior to wounding. Corneal epithelial wound of 5-mm diameter was made and allowed to heal for 42 h and then fluorescence stained, and photographed. (FIG. 6B) Changes in the mean of the remaining wound areas in pixels were calculated by Adobe Photoshop software with p value listed, n=5. (FIG. 6C). CECs collected during wounding (Con) and 42 hpw in PBS and TGFβ3 treated corneas were extracted and subjected to Western blotting with listed antibodies; two samples out of 5 from post wounding corneas were shown with actin as the internal control. The anti-TGFβ1-3 antibodies recognized both latent (44, 25, 47 kDa, respectively) and active (15, 12, 15 kDa, respectively) forms, giving two bands in Western blotting. These figures are representatives of 5 corneas per condition from 2 independent experiments; ** p<0.01.
Determination of Protein Expression and Phosphorylation by Western Blot Analysis. The epithelial cells removed during corneal debridement (the control) and post-wound, but prior to wound closure, were collected from NL and DM rat corneas and lysed with radioimmunoprecipitation assay (RIPA) buffer. Protein concentrations were determined using Micro BCA kits. Levels of various proteins or their phosphorylation were determined using specific antibodies. For each condition, two samples were shown with β-actin levels as the internal controls.
Exogenous TGFβ3 accelerates delayed epithelial wound closure in DM corneas. Whether exogenously-added TGFβ3 in DM corneas accelerates delayed epithelial wound closure in GK and STZ B6 mice was assessed next. […] To assess if exogenously added TGFβ3 affects the isoform expression, antibodies against TGFβ1-3 were used for Western blotting. […] While some elevated active TGFβ3 molecules could be from exogenously added TGFβ3 (15 kDa), the latent form (47 kDa) can only be from endogenous sources, indicating an auto-regulation of TGFβ3 expression in rat corneas.

adult skin wounds = details: failure due to increased angiogenesis in post-surgery skin; cited from earlier work
Serpine 1 = assay: Realtime-PCR for Serpine 1 expression in CECs of TGFβ3 treated mouse corneas; type: in vivo; details: NL and DM mice, 16 or 24 hpw
Protocol: as §3
RNA Extraction and Real-time PCR. For RNA isolation, CECs were scraped off of corneas, with 2 corneas pooled into 1 tube as one sample. RNA was extracted from the collected CECs using RNeasy Mini Kit (QIAGEN). cDNA was generated with an oligo(dT) primer (Invitrogen) followed by analysis using real-time PCR with the Power SYBR Green PCR Master Mix (AB Applied Biosystems), based on the expression of β-actin.

GK rat corneas = assay: Epithelial wound closure in GK rat corneas after subconjunctival recombinant TGFβ3; type: in vivo; details: GK rats, 40 ng in 20 μl subconjunctival 4 hours prior to debridement, 5-mm wound, 42 h, vs PBS
Protocol: as §4
Corneal Epithelial Debridement Wound. […]
Exogenous TGFβ3 accelerates delayed epithelial wound closure in DM corneas. Whether exogenously-added TGFβ3 in DM corneas accelerates delayed epithelial wound closure in GK and STZ B6 mice was assessed next. […]

[4] = tested on: corneas of type 1 DM rats and mice and type 2 DM rats; assay: Epithelial wound healing in DM corneas of three rodent models (summary statements); type: in vivo; details: exogenous TGFβ3
Description: The described genome-wide cDNA microarrays were used to compare the gene expression profiles of WH versus UW and DM versus NL CECs. […] Without being bound to a single theory, the effects of TGFβs on epithelial wound closure are related to its ability to activate Smad-dependent and -independent pathways, to modulate its own expression, and to mediate target gene expression.
The altered expression of TGFβ3 was also confirmed in cultured human corneas post wound healing, indicating the relevance of the study. […] While the mechanisms underlying hyperglycemia-suppressed wound-induced TGFβ3 expression is unclear, early inhibitory effects of hyperglycemia on TGFβ3 expression, which differs from that of TGFβ1 (42), may exacerbate the suppression of TGFβ3 up-regulation in response to wounding.

Question: For Activin, which “Treatment Outcome: Reduces occurrence and/or severity of ulcers” value [1] is on record?
Answer: Its value is “Reduces occurrence”.

Question: And the “Treatment Outcome: Promotes re-epithelialization” value [2]?
Answer: Its value is “Promotes”.

Question: For “TGβ1: TGFβ isoform 1 administered as part of a therapeutic composition”, which “Treatment Outcome: Reduces occurrence and/or severity of ulcers” value [1] is on record?
Answer: The value was “Reduces occurrence”.

Question: And the “Treatment Outcome: Promotes re-epithelialization” value [2]?
Answer: The value was “Promotes”.

B1: TGFβ3: recombinant Transforming Growth Factor beta 3 isoform, injected subconjunctivally (protein)
chain: ALDTNYCFRNLEENCCVRPLYIDFRQDLGWKWVHEPKGYYANFCSGPCPYLRSSDTTHSTVLGLYNTLNPEASASPCCVPQDLEPLTILYYVGRTPKVEQLSNMVVKSCKCS
Question: What does the source list for B1?
Answer: rate of epithelial closure (STZ B6 mouse corneas): significantly increased; Treatment Outcome: Reduces occurrence and/or severity of ulcers [1]: Reduces occurrence; Smad2/3 phosphorylation in WH CECs ([3]; 42 hpw): enhancing; TGFβ3 expression (latent form, endogenous) ([3]; WH CECs): increased; TGFβ1 expression ([3]; WH DM CECs): no effects; levels of TGFβ2 ([3]; all samples): low and unchanged; outcome of phase 3 clinical trials as anti-scarring agent (adult skin wounds): considered a failure; Serpine 1 mRNA levels (Serpine 1): correlated to the levels of TGFβ3 activity; rate of wound closure (GK rat corneas): substantially increasing; epithelial wound healing in DM corneas [4]: promotes epithelial wound healing; also recorded: partially restores the healing rate; Treatment Outcome: Promotes re-epithelialization [2]: Promotes

B2: Nodal: composition that up-regulates SMAD-signaling (protein, UniProt Q96S42 238-347, looked up)
Nodal homolog: HHLPDRSQLCRKVKFQVDFNLIGWGSWIIYPKQYNAYRCEGECPNPVGEEFHPTNHAYIQSLLKRYQPHRVPSTCCAPVKTKPLSMLYVDNGRVLLDHHKDMIVEECGCL
Question: With B2 as the molecule, how does the “Treatment Outcome: Reduces occurrence and/or severity of ulcers” value [1] read?
Answer: Its value is “Reduces occurrence”.

Question: And the “Treatment Outcome: Promotes re-epithelialization” value [2]?
Answer: The value was “Promotes”.

B3: TGβ2: TGFβ isoform 2 administered as part of a therapeutic composition (protein)
chain: ALDAAYCFRNVQDNCCLRPLYIDFKRDLGWKWIHEPKGYNANFCAGACPYLWSSDTQHTKVLSLYNTINPEASASPCCVSQDLEPLTILYYIGNTPKIEQLSNMIVKSCKCS
Question: With B3 as the molecule, how does the “Treatment Outcome: Reduces occurrence and/or severity of ulcers” value [1] read?
Answer: Its value is “Reduces occurrence”.

Question: And the “Treatment Outcome: Promotes re-epithelialization” value [2]?
Answer: Its value is “Promotes”.
